Assay results taken from US20240239878A1 (SHANGHAI QILU PHARMACEUTICAL RESEARCH AND DEVELOPMENT CENTRE, published 2024).

Key:
[1] = target: T1, human DLL3 on SHP-77 cells (human, UniProt Q9NYJ7 27-618); experiment: flow cytometry, SHP-77 cells
T1 construct: also called DLL3-expressing cells (SHP-77)
T1 sequence: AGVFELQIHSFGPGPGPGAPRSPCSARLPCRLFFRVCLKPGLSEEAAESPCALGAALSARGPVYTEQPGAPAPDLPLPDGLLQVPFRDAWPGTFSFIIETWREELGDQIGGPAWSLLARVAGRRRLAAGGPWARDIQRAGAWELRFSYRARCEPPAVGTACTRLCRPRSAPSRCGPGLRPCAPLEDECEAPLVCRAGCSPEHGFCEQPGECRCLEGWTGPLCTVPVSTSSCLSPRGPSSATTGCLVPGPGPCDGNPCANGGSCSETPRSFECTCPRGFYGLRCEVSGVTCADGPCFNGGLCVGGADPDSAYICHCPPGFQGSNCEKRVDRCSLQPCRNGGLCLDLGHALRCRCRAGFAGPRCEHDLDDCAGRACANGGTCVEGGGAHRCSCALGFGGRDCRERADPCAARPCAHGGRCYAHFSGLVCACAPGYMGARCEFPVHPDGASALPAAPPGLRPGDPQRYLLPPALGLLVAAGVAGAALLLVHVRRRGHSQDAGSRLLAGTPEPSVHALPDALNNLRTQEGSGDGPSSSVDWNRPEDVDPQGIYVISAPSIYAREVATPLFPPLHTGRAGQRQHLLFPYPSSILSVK
Procedure, shortened: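 Trypsinised SHP-77 cells in 1% BSA/PBS were incubated with antibody (100 nM top, 10-fold steps, 7 concentrations) for 1 h at 4° C. Bound antibody was detected with goat anti-human IgG Fc-PE for 0.5 h at 4° C and read as PE mean fluorescence intensity. EC50 and Top MFI were derived from the curves.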

[2] = target: T2, human DLL1 (Sino Biological, Cat. No. 11635-H08H) (human, UniProt O00548 18-545); experiment: ELISA, plate coated with human DLL1 at 1 ug/mL, OD 450nm
T2 construct: also called family protein DLL1
T2 sequence: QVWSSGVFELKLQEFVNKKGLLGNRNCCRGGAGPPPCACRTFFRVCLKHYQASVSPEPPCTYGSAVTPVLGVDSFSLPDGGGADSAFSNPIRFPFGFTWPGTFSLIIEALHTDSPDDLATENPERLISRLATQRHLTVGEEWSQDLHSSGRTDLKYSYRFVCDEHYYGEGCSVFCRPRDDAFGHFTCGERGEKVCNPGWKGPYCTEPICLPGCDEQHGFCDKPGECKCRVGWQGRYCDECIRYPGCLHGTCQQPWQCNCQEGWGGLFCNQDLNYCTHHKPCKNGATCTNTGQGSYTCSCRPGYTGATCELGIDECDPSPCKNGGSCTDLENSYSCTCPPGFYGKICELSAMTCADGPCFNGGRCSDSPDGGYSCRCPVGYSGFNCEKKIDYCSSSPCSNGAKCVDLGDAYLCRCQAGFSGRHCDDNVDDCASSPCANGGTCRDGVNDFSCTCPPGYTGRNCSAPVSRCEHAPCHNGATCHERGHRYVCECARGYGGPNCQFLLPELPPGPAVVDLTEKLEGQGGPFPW
Procedure: The antigenic proteins human DLL1 (SinoBiological, cat. No. 11635-H08H) or human DLL4 (SinoBiological, cat. No. 10171-H08H) were dissolved in 1×PBS at a concentration of 1 μg/mL. […] The antigen was washed three times with PBST, 300 μL/well. The antigen was blocked with 1% BSA (in PBST), 200 µL/well, and incubated at 37° C. for 1.5 hours.
Antibodies to be tested were diluted with 1% BSA (in PBS) at a starting concentration of 100 nM, downwards by a 10-fold gradient for 7 concentrations. The plates were washed three times with PBST, 300 μL/well. The diluted antibody was added to an ELISA plate at 100 μL/well and incubated at room temperature for 2 hours. The antibodies were washed three times with PBST, 300 μL/well. The secondary antibodies (goat anti-human IgG Fc for DLL4 (HRP), 1:20000 dilution; HRP goat anti-mouse IgG (H+L) for DLL1, 1:10000 dilution) were diluted with 1% BSA in PBST. The diluted secondary antibodies were added to the ELISA plate at 100 μL/well and incubated at room temperature for 1 hour. The plates were washed 6 times with PBST, 300 μL/well. The developing solution (TMA and TMB 1:1 mixed) was prepared. The developing solution was added to the plate, 100 μL/well, and incubated in the dark for 5 min. 50 μL of ELISA stop solution was added to the plate and shaken well.

- EC50 [1]: 1.12 nM
- Top MFI [1]: 1570 MFI
- binding result [2]: no binding (tested: 100 nM)
B1: H2-39E2D11 mouse hybridoma-derived humanized anti-DLL3 antibody (antibody, V domains shown)
VH: QVQLVQSGAEVKKPGASVKVSCKASGYTFISYWITWVRQAPGQGLEWMGDIYPGSGSTTNYNEKFKSRVTMTRDTSTSTVYMELSSLRSEDTAVYYCARETTVGGAYAMDYWGQGTLVTVSS
VL: EIVLTQSPATLSLSPGERATLSCRASQSINNNLHWYQQKPGQAPRLLIKYVSQSISGIPARFSGSGSGTDFTLTISSLEPEDFAVYYCQQTNSWPLTFGGGTKLEIK
